Assays:
Assay in all cases: cell-based or functional assay
[1] = biological target: Env of HIV-1 pseudovirus CNE19 (HIV-1)
[2] = biological target: Env of HIV-1 pseudovirus 0260.v5.c36 (HIV-1)
[3] = biological target: Env of HIV-1 pseudovirus Ce2060_G9 (HIV-1)
[4] = biological target: Env of HIV-1 pseudovirus Q259.d2.17 (HIV-1)
[5] = biological target: Env of HIV-1 pseudovirus CNE52 (HIV-1)
[6] = biological target: Env of HIV-1 pseudovirus CNE20 (HIV-1)
[7] = biological target: Env of HIV-1 pseudovirus Ce1176_A3 (HIV-1)
[8] = biological target: Env of HIV-1 pseudovirus Du172.17 (HIV-1)
[9] = biological target: Env of HIV-1 pseudovirus 1394C9G1(Rev-) (HIV-1)
[10] = biological target: Env of HIV-1 pseudovirus 9004SS_A3_4 (HIV-1)
[11] = biological target: Env of HIV-1 pseudovirus CAP45.2.00.G3 (HIV-1)
[12] = biological target: Env of HIV-1 pseudovirus CNE21 (HIV-1)
[13] = biological target: Env of HIV-1 pseudovirus QH0692.42 (HIV-1)
[14] = biological target: Env of HIV-1 pseudovirus Ce704809221_1B3 (HIV-1)
[15] = biological target: HIV-1 Env pseudovirus SC05_8C11_2344 (HIV-1)
[16] = biological target: HIV-1 Env pseudovirus Du156.12 (HIV-1)
[17] = biological target: HIV-1 Env pseudovirus WEAU_d15_410_787 (HIV-1)
[18] = biological target: HIV-1 Env pseudovirus MS208.A1 (HIV-1)
[19] = biological target: HIV-1 Env pseudovirus ZM53M.PB12 (HIV-1)
[20] = biological target: HIV-1 Env pseudovirus CNE53 (HIV-1)
[21] = biological target: HIV-1 Env pseudovirus QH0692.42 (HIV-1)
[22] = biological target: HIV-1 Env pseudovirus HIV-16845-2.22 (HIV-1)
[23] = biological target: HIV-1 Env pseudovirus Ce1172_H1 (HIV-1)
[24] = biological target: HIV-1 Env pseudovirus ZM109F.PB4 (HIV-1)
[25] = biological target: HIV-1 Env pseudovirus CAP45.2.00.G3 (HIV-1)

## 10-1074 (antibody)
[1]
  IC50: 50 µg/mL
  IC80: > 50 µg/mL
[2]
  IC50: 0.099 µg/mL
  IC80: 0.16 µg/mL
[3]
  IC50: > 50 µg/mL
  IC80: > 50 µg/mL
[4]
  IC50: > 50 µg/mL
  IC80: > 50 µg/mL
[5]
  IC50: 1.23 µg/mL
  IC80: 13.1 µg/mL
[6]
  IC50: < 0.001 µg/mL
  IC80: 0.005 µg/mL
[7]
  IC50: 0.019 µg/mL
  IC80: 0.07 µg/mL
[8]
  IC50: 0.121 µg/mL
  IC80: 0.43 µg/mL
[9]
  IC50: 0.05 µg/mL
  IC80: 0.191 µg/mL
[10]
  IC50: 0.011 µg/mL
  IC80: 0.03 µg/mL
[11]
  IC50: > 50 µg/mL
  IC80: > 50 µg/mL
[12]
  IC50: 0.067 µg/mL
  IC80: 0.181 µg/mL
[13]
  IC50: 0.191 µg/mL
  IC80: 0.929 µg/mL
[14]
  IC50: 0.139 µg/mL
  IC80: 0.696 µg/mL

## 10E8 (antibody)
[1]
  IC50: 0.666 µg/mL
  IC80: 6.49 µg/mL
[2]
  IC50: > 10 µg/mL
  IC80: > 10 µg/mL
[3]
  IC50: 3.52 µg/mL
  IC80: > 10 µg/mL
[4]
  IC50: 4.59 µg/mL
  IC80: > 10 µg/mL
[5]
  IC50: 0.304 µg/mL
  IC80: 3.06 µg/mL
[6]
  IC50: 1.25 µg/mL
  IC80: 6.58 µg/mL
[7]
  IC50: 0.867 µg/mL
  IC80: 3.92 µg/mL
[8]
  IC50: 0.109 µg/mL
  IC80: 0.837 µg/mL
[9]
  IC50: 0.963 µg/mL
  IC80: 5.33 µg/mL
[10]
  IC50: 1.16 µg/mL
  IC80: 6.76 µg/mL
[11]
  IC50: 1.82 µg/mL
  IC80: > 10 µg/mL
[12]
  IC50: 1.9 µg/mL
  IC80: > 10 µg/mL
[13]
  IC50: 0.442 µg/mL
  IC80: 4.05 µg/mL
[14]
  IC50: 0.058 µg/mL
  IC80: 0.319 µg/mL

## N49P7.2 (antibody)
[15]
  IC50: 0.326 µg/mL
  IC80: 1.14 µg/mL
  MPI: 100
[16]
  IC50: 0.058 µg/mL
  IC80: 0.21 µg/mL
  MPI: 100
[17]
  IC50: 0.052 µg/mL
  IC80: 0.15 µg/mL
  MPI: 100
[18]
  IC50: 0.186 µg/mL
  IC80: 0.966 µg/mL
  MPI: 100
[19]
  IC50: 0.477 µg/mL
  IC80: 1.73 µg/mL
  MPI: 100
[20]
  IC50: 0.1 µg/mL
  IC80: 0.277 µg/mL
  MPI: 100
[21]
  IC50: 1.26 µg/mL
  IC80: 4.42 µg/mL
  MPI: 100
[22]
  IC50: 3.91 µg/mL
  IC80: 18.2 µg/mL
  MPI: 98
[23]
  IC50: > 50 µg/mL
  IC80: > 50 µg/mL
  MPI: 6
[24]
  IC50: 0.065 µg/mL
  IC80: 0.321 µg/mL
  MPI: 99
[25]
  IC50: 0.162 µg/mL
  IC80: 2.49 µg/mL
  MPI: 95

## N49P11 (antibody)
[15]
  IC50: 5.42 µg/mL
  IC80: 20.5 µg/mL
  MPI: 100
[16]
  IC50: 2.4 µg/mL
  IC80: 12 µg/mL
  MPI: 100
[17]
  IC50: 1.7 µg/mL
  IC80: 6.02 µg/mL
  MPI: 100
[18]
  IC50: 0.259 µg/mL
  IC80: 1.94 µg/mL
  MPI: 100
[19]
  IC50: 1.05 µg/mL
  IC80: 6.53 µg/mL
  MPI: 100
[20]
  IC50: 0.43 µg/mL
  IC80: 2.88 µg/mL
  MPI: 100
[21]
  IC50: 0.55 µg/mL
  IC80: 2.65 µg/mL
  MPI: 100
[22]
  IC50: 1.72 µg/mL
  IC80: 8.15 µg/mL
  MPI: 100
[23]
  IC50: 3.55 µg/mL
  IC80: 19.2 µg/mL
  MPI: 100
[24]
  IC50: 5.2 µg/mL
  IC80: 19.4 µg/mL
  MPI: 100
[25]
  IC50: 5.25 µg/mL
  IC80: 24 µg/mL
  MPI: 100
